How the values were obtained:
[1] = target: taxol-stabilized microtubules (MTs); assay: 30 mM KCl
[2] = target: taxol-stabilized microtubules (MTs); assay: 100 mM KCl
[3] = target: taxol-stabilized microtubules (MTs); assay: 200 mM KCl

Chain of taxol-stabilized microtubules (MTs) (chain, as listed by the source, chain 1 of 2): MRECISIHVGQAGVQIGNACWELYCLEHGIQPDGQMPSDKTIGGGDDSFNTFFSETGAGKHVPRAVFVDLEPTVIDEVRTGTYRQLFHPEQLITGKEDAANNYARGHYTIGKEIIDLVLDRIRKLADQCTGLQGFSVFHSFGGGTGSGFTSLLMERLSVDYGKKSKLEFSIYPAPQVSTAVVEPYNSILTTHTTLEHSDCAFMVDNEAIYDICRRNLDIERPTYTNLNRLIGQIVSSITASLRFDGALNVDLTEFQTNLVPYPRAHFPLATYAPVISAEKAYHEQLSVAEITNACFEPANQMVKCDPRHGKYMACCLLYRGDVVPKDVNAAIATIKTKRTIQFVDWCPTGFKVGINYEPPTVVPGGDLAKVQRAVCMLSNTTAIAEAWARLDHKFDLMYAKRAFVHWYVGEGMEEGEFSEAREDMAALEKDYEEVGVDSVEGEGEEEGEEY
Chain of taxol-stabilized microtubules (MTs) (chain, as listed by the source, chain 2 of 2): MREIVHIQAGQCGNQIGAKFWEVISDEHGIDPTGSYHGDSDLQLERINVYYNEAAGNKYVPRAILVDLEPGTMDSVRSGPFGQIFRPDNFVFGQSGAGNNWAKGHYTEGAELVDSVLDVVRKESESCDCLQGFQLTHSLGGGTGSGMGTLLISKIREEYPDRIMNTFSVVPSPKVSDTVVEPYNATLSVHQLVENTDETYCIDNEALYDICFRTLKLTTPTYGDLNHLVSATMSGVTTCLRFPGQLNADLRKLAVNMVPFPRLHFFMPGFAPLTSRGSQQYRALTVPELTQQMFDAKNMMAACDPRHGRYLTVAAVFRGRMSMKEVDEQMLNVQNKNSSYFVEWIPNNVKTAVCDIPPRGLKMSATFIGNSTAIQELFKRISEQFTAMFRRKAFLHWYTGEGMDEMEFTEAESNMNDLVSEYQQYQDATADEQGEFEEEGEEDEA

Kd [1]: 340 nM
Kd [2]: 770 nM
Kd [3]: 3010 nM
B1: MBP-Kif18A^tail-His6 (tail of Xl_Kif18A, aa 846-953) (domain or fragment)
chain: PSYMAMTSAAERKRKLLSLAGNSAVKEDSVPLPTAKRVRQDIALDCKALRVQRVAAGTTRSKDNCARRRLPKSVSEGALGVKTKPFSFQGSAQLLFQGGKKKAALKDP

Reference: paper PMC5399559 (2017)
